Article PMC3458530

Key:
Experiment in all cases: EMSA
DNMT3A full-length = DNMT3A full-length (human, UniProt Q9Y6K1 1-912)
[1] = biological target: DNMT3A catalytic domain (cDNMT3A) (human, UniProt Q9Y6K1 612-912)
M.HhaI = biological target: T1, M.HhaI (bacterial (species ), UniProt P05102 1-327)
T1 sequence: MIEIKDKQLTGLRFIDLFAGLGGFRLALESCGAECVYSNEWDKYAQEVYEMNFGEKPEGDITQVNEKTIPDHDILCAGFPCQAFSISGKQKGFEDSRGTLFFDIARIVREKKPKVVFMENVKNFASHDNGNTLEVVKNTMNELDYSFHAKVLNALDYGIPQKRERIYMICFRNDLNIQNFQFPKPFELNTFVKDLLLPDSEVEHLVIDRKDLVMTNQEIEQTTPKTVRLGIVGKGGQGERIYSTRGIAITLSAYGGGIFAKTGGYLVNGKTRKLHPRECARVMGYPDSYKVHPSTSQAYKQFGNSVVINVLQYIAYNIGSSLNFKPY

Chain of DNMT3A full-length (Q9Y6K1 whole entry, the tested form may be a part): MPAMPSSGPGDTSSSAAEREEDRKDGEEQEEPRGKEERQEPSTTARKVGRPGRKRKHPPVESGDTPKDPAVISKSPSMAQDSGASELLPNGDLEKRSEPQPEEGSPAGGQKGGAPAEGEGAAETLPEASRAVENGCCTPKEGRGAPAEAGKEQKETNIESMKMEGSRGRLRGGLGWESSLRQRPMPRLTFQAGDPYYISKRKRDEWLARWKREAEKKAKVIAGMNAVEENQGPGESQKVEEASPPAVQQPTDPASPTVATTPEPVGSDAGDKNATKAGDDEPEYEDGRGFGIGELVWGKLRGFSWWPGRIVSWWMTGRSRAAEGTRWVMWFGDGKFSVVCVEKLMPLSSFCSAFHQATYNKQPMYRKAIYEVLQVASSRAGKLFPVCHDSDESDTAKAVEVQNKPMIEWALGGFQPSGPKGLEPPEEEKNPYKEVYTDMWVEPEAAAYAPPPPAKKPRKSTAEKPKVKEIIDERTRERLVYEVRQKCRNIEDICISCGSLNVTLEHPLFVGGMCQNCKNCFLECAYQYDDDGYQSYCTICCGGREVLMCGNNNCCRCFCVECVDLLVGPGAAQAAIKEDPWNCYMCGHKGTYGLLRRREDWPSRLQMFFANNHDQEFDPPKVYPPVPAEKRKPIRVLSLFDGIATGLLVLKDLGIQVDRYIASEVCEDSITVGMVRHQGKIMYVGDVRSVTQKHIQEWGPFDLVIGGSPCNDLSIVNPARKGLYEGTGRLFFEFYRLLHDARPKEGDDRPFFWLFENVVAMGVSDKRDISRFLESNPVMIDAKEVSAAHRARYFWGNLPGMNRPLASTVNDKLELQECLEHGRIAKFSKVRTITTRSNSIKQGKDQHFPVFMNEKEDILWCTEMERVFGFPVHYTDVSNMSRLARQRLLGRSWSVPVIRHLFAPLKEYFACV
Chain of DNMT3A catalytic domain (cDNMT3A) (Q9Y6K1 612-912): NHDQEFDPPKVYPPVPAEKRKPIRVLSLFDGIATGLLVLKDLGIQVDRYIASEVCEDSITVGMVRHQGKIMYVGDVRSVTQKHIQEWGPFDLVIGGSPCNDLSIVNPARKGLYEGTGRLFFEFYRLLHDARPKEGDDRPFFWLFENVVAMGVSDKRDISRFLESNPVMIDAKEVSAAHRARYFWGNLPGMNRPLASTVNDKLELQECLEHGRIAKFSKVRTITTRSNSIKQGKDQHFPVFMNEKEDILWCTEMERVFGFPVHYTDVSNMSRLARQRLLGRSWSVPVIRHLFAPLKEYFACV

Binder	Kd (DNMT3A full-length)	binding result [1]	binding result (M.HhaI)
NUP153 duplex siRNA (dsRNA, 3' dTdT on both strands (DNA residues)) RNA 1: ACCAAAUAAAACUGGCAAATT RNA 2: UUUGCCAGUUUUAUUUGGUTT	0.52 µM	–	–
GAGUUUACCCCGCGCCACCUU (ssRNA) [EFS1 (ssEF1a RNA)]	0.69 µM	no binding	no binding
